Assay results reported in paper PMC5291245 (Nucleic Acids Research, 2016).

Target: His6-SUMO tagged H3.3 (human, UniProt P84243 1-136)
Assay: native gel or EMSA

binding result: binds
B1: human histone H3.Y (natural protein)
chain: not shown
